Changes are numbered by the printed parent chain.

9 molecules from patent US20250066509A1 can be followed below.

B1: CB-8 (antibody, V domains shown)
VH: EVQLVQSGAEVKKPGASVKVSCKASGYTFTSYGISWVRQAPGQGLEWMGWISAYNGNTNYAQKLQGRVTMTTDTSTSTAYMELRSLRSDDTAVYYCATLYGSGSLYYWGQGTLVTVSS
VL: DIVMTQSPSSLSAPVGDRVTITCQASQDIRNYINWFQQKPGKAPKLLIYAASSLQSGVPSRFSGSGSGTDFTLTISSLQPEDFATYYCQQSYSTPQWTFGQGTKVEIK
B2: CB-8-23 (antibody, human IgG1, V domains shown)
VH: B1 VH with Y32G, N57R
VL: B1 VL with S53F
B3: CB-8-40 (antibody, human IgG1, V domains shown)
VH: B1 VH with N55S
VL: B1 VL with S53Y
B4: CB-8-41 (antibody, human IgG1, V domains shown)
VH: B1 VH with T28L, N55T
VL: B1 VL with S53H
B5: CB-8-13 (antibody, human IgG1, V domains shown)
VH: B1 VH with T28R, N57R
VL: B1 VL with S53R
B6: CB-8-24 (antibody, V domains shown)
VH: B1 VH with Y100L, G101P
VL: B1 VL
B7: CB-8-14 (antibody, human IgG1, V domains shown)
VH: B1 VH with T30R, N55T
VL: B1 VL with L54R
B8: CB-8-26 (antibody, human IgG1, V domains shown)
VH: B1 VH with T30K, N57R
VL: B1 VL with S53G
B9: CB-8-37 (antibody, human IgG1, V domains shown)
VH: B1 VH with T28A, N55S
VL: B1 VL with S53F

The target in the assay is human FGFR1c/βKlotho receptor (human), P11362. As to the kind of experiment: cell-based or functional assay.
Chain of human FGFR1c/βKlotho receptor (human), P11362 (P11362 22-822, chain 1 of 2): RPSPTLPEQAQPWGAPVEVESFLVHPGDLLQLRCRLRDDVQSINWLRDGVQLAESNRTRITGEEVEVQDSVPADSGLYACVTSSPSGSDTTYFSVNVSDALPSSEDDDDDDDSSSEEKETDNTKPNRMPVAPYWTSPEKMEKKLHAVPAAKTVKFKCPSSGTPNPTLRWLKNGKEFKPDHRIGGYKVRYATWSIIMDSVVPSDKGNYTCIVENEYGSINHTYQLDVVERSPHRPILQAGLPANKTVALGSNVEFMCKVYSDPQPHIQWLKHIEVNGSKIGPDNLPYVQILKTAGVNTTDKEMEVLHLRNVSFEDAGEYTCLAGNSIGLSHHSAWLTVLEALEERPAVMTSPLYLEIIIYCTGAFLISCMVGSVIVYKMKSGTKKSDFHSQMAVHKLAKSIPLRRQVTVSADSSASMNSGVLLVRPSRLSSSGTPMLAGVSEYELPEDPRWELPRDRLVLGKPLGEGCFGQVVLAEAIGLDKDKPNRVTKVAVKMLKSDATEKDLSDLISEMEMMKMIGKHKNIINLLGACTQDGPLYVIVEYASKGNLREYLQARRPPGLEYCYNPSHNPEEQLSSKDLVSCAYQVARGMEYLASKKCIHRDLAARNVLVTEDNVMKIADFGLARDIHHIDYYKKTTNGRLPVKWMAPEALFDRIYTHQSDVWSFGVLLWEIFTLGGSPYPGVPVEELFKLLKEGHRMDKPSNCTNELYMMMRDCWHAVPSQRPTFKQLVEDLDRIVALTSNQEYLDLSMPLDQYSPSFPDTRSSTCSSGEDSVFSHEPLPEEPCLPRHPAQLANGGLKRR
Chain of human FGFR1c/βKlotho receptor (human), P11362 (chain, as listed by the source, chain 2 of 2): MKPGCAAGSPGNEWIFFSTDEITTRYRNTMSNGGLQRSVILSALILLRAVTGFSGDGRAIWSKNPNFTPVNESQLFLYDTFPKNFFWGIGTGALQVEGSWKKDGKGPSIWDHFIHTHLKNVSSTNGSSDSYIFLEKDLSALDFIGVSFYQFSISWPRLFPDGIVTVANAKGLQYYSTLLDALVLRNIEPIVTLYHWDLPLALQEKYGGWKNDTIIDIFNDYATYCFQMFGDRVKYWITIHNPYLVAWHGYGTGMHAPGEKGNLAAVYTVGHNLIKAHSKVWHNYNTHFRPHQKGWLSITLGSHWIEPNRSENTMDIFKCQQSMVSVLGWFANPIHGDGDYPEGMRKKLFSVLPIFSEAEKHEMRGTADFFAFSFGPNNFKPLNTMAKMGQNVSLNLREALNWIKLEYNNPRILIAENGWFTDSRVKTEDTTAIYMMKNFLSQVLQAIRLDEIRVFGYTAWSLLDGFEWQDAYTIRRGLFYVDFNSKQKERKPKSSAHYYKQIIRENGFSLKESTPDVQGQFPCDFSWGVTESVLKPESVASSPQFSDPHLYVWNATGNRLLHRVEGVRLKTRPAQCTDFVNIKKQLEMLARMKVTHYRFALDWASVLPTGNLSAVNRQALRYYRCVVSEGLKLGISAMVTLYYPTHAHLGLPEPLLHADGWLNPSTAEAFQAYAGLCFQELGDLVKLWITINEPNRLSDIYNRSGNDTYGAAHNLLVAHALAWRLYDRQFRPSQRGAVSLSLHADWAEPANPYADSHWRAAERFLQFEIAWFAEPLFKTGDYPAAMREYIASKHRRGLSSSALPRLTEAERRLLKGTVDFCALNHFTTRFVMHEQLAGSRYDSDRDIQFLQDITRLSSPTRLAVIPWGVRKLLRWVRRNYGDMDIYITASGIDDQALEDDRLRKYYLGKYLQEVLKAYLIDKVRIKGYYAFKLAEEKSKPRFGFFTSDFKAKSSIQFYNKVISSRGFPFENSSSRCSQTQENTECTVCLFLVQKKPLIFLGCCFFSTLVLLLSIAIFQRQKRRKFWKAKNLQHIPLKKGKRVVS
B1 had an EC50, luciferase reporter-based assay (receptor activation) of 1.31 nM and an EC50 for antibody-induced cell activation, as determined by the reporter-based assay of 3.74 nM. In turn, B2 registered an EC50 for antibody-induced cell activation, as determined by the reporter-based assay of 0.57 nM.

Regarding B3, the EC50 for antibody-induced cell activation, as determined by the reporter-based assay was found to be 0.89 nM.

Turning to B4, the EC50 for antibody-induced cell activation, as determined by the reporter-based assay was 1.43 nM. Same read-out and setting: to B5 belongs 1.39 nM; to B6, 0.68 nM.

The molecule B7 gave an EC50 for antibody-induced cell activation, as determined by the reporter-based assay of 0.95 nM. Same read-out and setting: under B8 stands 0.66 nM; under B9, 0.92 nM.
